Changes are numbered by the printed parent chain. Names and notes keep the numbering of the source.
Tests used:
[1] = molecular target: T1, human PSMA on tumor cells (LNCaP, MDA-PCA-2B, VCAP, 22Rv1) (human, UniProt Q04609 1-750); experiment: cell-based or functional assay
[2] = molecular target: T1, human PSMA on tumor cells (LNCaP, …); experiment: cell-based or functional assay; remark: listed apart in the source
[3] = molecular target: T2, chimpanzee PSMA extracellular domain (PSMW8), 6His and Avi tag (chimpanzee, UniProt Q04609 44-750 (human entry), biotinylated in bead-based selections and the ELISA screen); experiment: hit from CIS-display panning and ELISA screen on PSMA of this species (column Antigen species)
T2 construct: Cloned along with a 6His and Avi tag; Buffer with ZnCl2 to stabilise PSMA dimerisation; also called pan 229
T2 chain: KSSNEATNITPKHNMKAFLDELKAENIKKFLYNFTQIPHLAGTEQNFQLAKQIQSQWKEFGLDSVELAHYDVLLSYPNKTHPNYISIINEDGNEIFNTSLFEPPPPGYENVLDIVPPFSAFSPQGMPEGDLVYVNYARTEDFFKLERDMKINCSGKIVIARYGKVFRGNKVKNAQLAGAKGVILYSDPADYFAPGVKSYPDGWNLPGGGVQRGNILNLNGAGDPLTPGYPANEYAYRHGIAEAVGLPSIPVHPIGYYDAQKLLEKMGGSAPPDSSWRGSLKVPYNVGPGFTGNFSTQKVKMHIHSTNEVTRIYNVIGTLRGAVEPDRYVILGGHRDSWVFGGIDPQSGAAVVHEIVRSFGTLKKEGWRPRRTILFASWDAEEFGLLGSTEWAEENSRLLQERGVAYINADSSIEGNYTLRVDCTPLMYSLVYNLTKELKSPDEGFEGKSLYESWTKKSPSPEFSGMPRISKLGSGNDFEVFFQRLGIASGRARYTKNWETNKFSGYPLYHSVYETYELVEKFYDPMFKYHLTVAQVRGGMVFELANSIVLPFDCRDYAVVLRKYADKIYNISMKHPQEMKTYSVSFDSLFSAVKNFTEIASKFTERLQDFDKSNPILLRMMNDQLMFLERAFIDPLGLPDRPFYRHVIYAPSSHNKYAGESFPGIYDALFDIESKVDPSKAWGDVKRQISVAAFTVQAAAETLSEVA

[4] = molecular target: T3, isolated cynomolgus PSMA (cynoPSMA) extracellular domain, Fc removed (cynomolgus, UniProt Q04609 44-750 (human entry), N-linked glycans seen at Asn-76, -121, -140, -195, -459, -476, -613 and -638 (numbering of SEQ ID NO: 141)); experiment: X-ray crystal structure of the complex
T3 construct: Expressed in GnTI- cells as a C-terminal fusion to huIgG1 Fc; the ECD starts at residue 44 of that entry; the structure includes residues 57-750; also called cynomolgous PSMA dimer
T3 chain: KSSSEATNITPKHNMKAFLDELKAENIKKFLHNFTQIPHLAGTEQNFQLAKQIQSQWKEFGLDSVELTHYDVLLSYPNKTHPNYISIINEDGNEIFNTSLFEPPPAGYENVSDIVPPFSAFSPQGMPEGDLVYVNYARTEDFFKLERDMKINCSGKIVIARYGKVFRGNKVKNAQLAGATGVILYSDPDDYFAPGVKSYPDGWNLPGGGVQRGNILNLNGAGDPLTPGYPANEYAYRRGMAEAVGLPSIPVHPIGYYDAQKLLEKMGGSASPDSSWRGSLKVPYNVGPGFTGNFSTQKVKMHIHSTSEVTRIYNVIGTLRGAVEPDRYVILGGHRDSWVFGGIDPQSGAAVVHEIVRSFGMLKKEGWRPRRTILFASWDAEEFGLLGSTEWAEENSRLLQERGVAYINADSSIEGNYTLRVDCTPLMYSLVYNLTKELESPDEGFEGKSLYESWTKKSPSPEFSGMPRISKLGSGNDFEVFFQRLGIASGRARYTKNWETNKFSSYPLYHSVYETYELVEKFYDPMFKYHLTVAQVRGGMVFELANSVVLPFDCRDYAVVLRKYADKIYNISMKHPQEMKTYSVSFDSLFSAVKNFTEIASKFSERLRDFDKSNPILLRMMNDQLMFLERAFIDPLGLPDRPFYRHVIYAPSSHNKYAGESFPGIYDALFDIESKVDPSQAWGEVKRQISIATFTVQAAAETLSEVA
Experimental: The H10 FN3 Domain/cynoPSMA complex was prepared by mixing cynoPSMA with H10 FN3 domain at a molar ratio of 1:3 (excess FN3 domain) while dialyzing for 48 h at 4° C. against 20 mM Hepes pH 7.0, 0.5 mM ZnCl₂. The complex was then eluted from a monoS column with a gradient of 48-68 mM NaCl, 20 mM Hepes pH 7.5, 10% glycerol and concentrated to 3.4 mg/mL. Crystals suitable for X-diffraction were obtained from 25% PEG 3 kDa, 0.2 M NH₄Cl, 0.1 M Na Acetate pH 4.5 using the sitting drop vapor-diffusion method at 20° C.
For X-ray data collection, the crystal was soaked for a few seconds in a cryo-protectant solution containing mother liquor supplemented with 20% glycerol, and then frozen in liquid nitrogen. X-ray diffraction data were collected with a Dectris Pilatus 6M Pixel Array detector at the beamline 17-ID of the Advanced Photon Source (APS) at Argonne National Laboratory. Diffraction data were processed with the program HKL2000 (Otwinowski & Minor, 1997).

[5] = molecular target: T4, cell-surface CD3E on primary human T cells (human, UniProt P07766 23-207); experiment: flow cytometry on primary human T cells, positive control
T4 construct: whole, on cells; On the cells CD3E stands in the CD3/T cell receptor complex; also called human CD3
T4 sequence (P07766 23-207): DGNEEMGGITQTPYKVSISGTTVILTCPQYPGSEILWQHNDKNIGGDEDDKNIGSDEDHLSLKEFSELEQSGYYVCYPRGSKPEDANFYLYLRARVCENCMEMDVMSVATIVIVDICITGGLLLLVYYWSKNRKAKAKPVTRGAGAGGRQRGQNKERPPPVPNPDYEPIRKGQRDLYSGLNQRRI
Experimental: The resulting panel of anti-CD3 antibodies was tested for binding against cell-surface CD3E on primary human T cells. To do this, binding of antibodies from expression supernatants was visualized using a polyclonal anti-human secondary antibody and analyzed by flow cytometry. Briefly, binding of anti-CD3 antibodies to cell-surface CD3E was assessed by flow cytometry using primary Human T lymphocytes purified by negative selection (Biological Specialty, Colmar, USA). Expression supernatants or purified antibodies were normalized to 10 μg/ml in media or FACS buffer (BD BioSciences), respectively. 2×10⁵ cells were aliquoted into wells of a 96 well round-bottomed plate (CoStar) for labeling. Antibodies in expression supernatant were added to cells and incubated for 45 min at 4° C. Following centrifugation at 1300 rpm for 3 min and removal of supernatant, 50 μL of anti-human IgG (H+L) Alexa Fluor 647 secondary antibody (Life technologies Inc.) was incubated with the cells at a final concentration of 10 μg/mL for 30 min at 4° C. away from direct light. Following washing and resuspension in 30 μL FACs buffer (BD BioSciences). Sample collection was performed on an Intellicyt HTFC system using ForeCyt software. […] Graphs were generated in GraphPad Prism version 5 using mean fluorescence intensity values. […]

[6] = molecular target: T5, cynomolgus CD3E on primary cynomolgus CD4+ T cells (cynomolgus, UniProt Q95LI5 22-198); experiment: stated for the flow cytometry assay on primary cynomolgus CD4+ T cells
T5 construct: whole, on cells; On the cells CD3E stands in the CD3/T cell receptor complex
T5 sequence (Q95LI5 22-198): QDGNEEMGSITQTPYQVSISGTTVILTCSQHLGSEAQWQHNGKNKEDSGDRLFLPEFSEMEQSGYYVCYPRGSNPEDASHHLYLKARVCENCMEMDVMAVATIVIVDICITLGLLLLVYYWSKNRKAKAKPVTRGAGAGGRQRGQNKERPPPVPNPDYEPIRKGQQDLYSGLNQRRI

[7] = molecular target: T5, cynomolgus CD3E on primary cynomolgus …; experiment: flow cytometry on primary cynomolgus CD4+ T cells
Experimental: (§1) The resulting panel of anti-CD3 antibodies was tested for binding against cell-surface CD3E on primary human T cells. To do this, binding of antibodies from expression supernatants was visualized using a polyclonal anti-human secondary antibody and analyzed by flow cytometry. Briefly, binding of anti-CD3 antibodies to cell-surface CD3E was assessed by flow cytometry using primary Human T lymphocytes purified by negative selection (Biological Specialty, Colmar, USA). Expression supernatants or purified antibodies were normalized to 10 μg/ml in media or FACS buffer (BD BioSciences), respectively. 2×10⁵ cells were aliquoted into wells of a 96 well round-bottomed plate (CoStar) for labeling. Antibodies in expression supernatant were added to cells and incubated for 45 min at 4° C. Following centrifugation at 1300 rpm for 3 min and removal of supernatant, 50 μL of anti-human IgG (H+L) Alexa Fluor 647 secondary antibody (Life technologies Inc.) was incubated with the cells at a final concentration of 10 μg/mL for 30 min at 4° C. away from direct light. Following washing and resuspension in 30 μL FACs buffer (BD BioSciences). Sample collection was performed on an Intellicyt HTFC system using ForeCyt software. Viable single cells were gated prior to analysis of binding using the green or red fixable live/dead dyes (Life Technologies Inc.) and forward/side scatter area and height parameters, respectively. Graphs were generated in GraphPad Prism version 5 using mean fluorescence intensity values.
Binding analysis of the anti-CD3 hits to primary cynomolgusCD4+ T cells was then tested in order to assess the retention of cross-reactivity. Purified CD4+ T cells from the peripheral blood of cynomolgus monkeys (Zen Bio, Triangle Research Park, USA were used). Assay protocols were similar to those described above. […] This included the strong binders CD3B150, CD3B151 and CD3B154, in which binding was reduced, and several weak binders where binding could no longer be detected over background.

[8] = molecular target: T4, cell-surface CD3E on primary human T …; experiment: flow cytometry on primary human T cells, anti-human IgG Alexa Fluor 647 secondary
Experimental: as §1
Two in-house phage-derived antibodies with the same Fc region as the therapeutic antibodies were used as controls: G11 (HC SEQ ID NO:176, LC SEQ ID NO:177), a non-cyno cross-reactive, agonistic antibody was used as a positive control and CD3B94 (HC-SEQ ID NO:178, LC—SEQ ID NO:179) a non-binder/non-agonistic antibody was used to assess non-specific binding. The commercial SP34 antibody was not used as a comparator in this assay since it is a mouse antibody and the use of a different secondary detection reagent would have prohibited direct comparison with the variants tested.

T1 sequence (Q04609 whole entry): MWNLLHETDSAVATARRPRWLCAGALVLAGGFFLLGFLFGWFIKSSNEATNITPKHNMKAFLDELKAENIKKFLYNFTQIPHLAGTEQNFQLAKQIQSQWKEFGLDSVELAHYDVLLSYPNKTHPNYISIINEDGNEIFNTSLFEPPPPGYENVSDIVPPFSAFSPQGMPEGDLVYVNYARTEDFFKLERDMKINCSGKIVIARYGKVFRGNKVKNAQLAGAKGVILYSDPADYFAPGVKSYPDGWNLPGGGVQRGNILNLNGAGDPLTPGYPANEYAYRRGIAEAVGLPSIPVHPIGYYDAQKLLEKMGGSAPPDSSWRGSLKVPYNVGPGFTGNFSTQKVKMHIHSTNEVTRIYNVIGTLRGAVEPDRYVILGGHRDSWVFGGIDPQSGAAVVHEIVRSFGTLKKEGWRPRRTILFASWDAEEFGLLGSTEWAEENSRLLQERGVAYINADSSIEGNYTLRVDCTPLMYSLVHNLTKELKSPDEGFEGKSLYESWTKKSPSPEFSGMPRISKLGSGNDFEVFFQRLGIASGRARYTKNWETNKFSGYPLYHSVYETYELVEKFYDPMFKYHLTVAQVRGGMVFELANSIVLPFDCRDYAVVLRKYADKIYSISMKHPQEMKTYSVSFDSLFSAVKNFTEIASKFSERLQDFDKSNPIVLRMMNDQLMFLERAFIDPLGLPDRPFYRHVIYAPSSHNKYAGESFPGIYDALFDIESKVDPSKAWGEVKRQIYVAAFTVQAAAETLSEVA

B1: P233FR9_H10 (designed binder)
chain: LPAPKNLVVSRVTEDSARLSWTAPDAAFDSFAIGYWEWDDDGEAIVLTVPGSERSYDLTGLKPGTEYPVYIAGVKGGQWSFPLSAIFTT
notes: also called H10 FN3 domain; P233FR9_10; not shown: C-terminal poly-histidine tag
- LNCaP cells IC50 (nM), cytotoxicity of FN3 domain-drug conjugate [1]: 0.5 nM
- MDA-PCA-2B cells IC50 (nM), cytotoxicity of FN3 domain-drug conjugate [1]: 5.8 nM
- VCAP cells IC50 (nM), cytotoxicity of FN3 domain-drug conjugate [1]: 25.9 nM
- LNCaP IC50 (nM), cytotoxicity of the FN3 domain-vcMMAF conjugate (CellTiter-Glo) [2]: 0.4 nM
- binding result [3]: binds
- binding result [4]: binds

B2: G11 (antibody, V domains shown)
VH: EVQLLESGGGLVQPGGSLRLSCAASGFTFSSYGMSWVRQAPGKGLEWVSGINGGGGSKYYADSVKGRFTISRDNSKNTLYLQMNSLRAEDTAVYYCAKTSAQRFDYWGQGTLVTVSS
VL: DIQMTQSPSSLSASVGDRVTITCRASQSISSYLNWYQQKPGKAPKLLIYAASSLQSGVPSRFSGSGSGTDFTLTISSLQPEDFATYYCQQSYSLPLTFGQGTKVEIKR
notes: In-house phage-derived anti-CD3 antibody; non-cyno cross-reactive, agonistic; positive control; also called G11 mAb
- binding result [5]: binds
- binding result [6]: no binding

B3: CD3B150 (antibody, human IgG1, V domains shown)
VH: EVQLLESGGGLVQPGGSLRLSCAASGFTFNTYAMNWVRQAPGKGLEWVARIRSKYNNYATYYADSVKGRFTISRDNSKNTLYLQMNSLRAEDTAVYYCAKHGNFGNSYVSWFAYWGQGTLVTVSS
VL: QTVVTQEPSLTVSPGGTVTLTCRSSTGAVTTSNYANWVQQKPGQAPRGLIGGTNKRAPGTPARFSGSLLGGKAALTLSGVQPEDEAEYYCALWYSNLWVFGGGTKLTVL
notes: Humanized SP34 variant; human IgG1 constant region with L234A, L235A, F405L; human lambda constant region; also called CDB150
- binding result [7]: binds
- binding result [8]: binds

B4: CD3B151 (antibody, human IgG1, V domains shown)
VH: B3 VH with A99V
VL: B3 VL with T2A, V80A
notes: Humanized SP34 variant; human IgG1 constant region with L234A, L235A, F405L; human lambda constant region; also called CDB151
- binding result [7]: binds
- binding result [8]: binds
